Test results from article PMC4021073, “Breast tumor specific mutation in GATA3 affects physiological mechanisms regulating transcription factor turnover”.

Molecular target: GATA3 DBD wild-type (UniProt P23771-2 261-371)
Experiment: EMSA; 0.5-4 uM protein, 30 uM DNA; 28 mM Tris-HCl pH 7.5, 120 mM NaCl, 1 mM DTT, 0.8 mM 2-mercaptoethanol, 4% glycerol, 0.4 uM zinc sulfate; 10 min at 37 C; 10 ul
Conditions: protein: recombinant; (pET-15b hexahistidine fusion); label: none (ethidium bromide stain); blunt (20 bp; one strand printed)

GATA3 DBD wild-type, sequence (P23771 260-370): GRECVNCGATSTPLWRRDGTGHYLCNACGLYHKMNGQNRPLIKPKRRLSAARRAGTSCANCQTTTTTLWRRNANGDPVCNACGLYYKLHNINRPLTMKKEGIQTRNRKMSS

B1: GATA+ 20 bp (dsDNA)
DNA 1: AATGTCCATCTGATAAGACG
DNA 2: CGTCTTATCAGATGGACATT
  binding result: binds
